Measurements reported in the DeepSol protein solubility set.

Assay: soluble on expression in E. coli; label from the status in PepcDB or PDB records

| Sequence | soluble on expression in E. coli |
| --- | --- |
| MMVWTPVNNKMFETFSYLPPLTDEQIAAQVDYIVANGWIPCLEFAEADKAYVSNESAIRFGSVSCLYYDNRYWTMWKLPMFGCRDPMQVLREIVACTKAFPDAYVRLVAFDNQKQVQIMGFLVQRPKTARDFQPANKRSV | soluble |
| AKGRAGRSKRTEQDHYETDYTTGGESCDELEEDWIREYPPITSDQQRQLYKRNFDTGLQEYKSLQSVLDEINKELSRLDKELDDYREESEEYMAAADEYNRLKQVKGSADYKSKKNHCKQLKSKLSHIKKMVGDYDRQKT | soluble |
| MTSMEEMLREAANEVLQSRIPPGYVLYPNYEQYWSHEHGMFYNPDTEQFYRPEDKTVYQLNAEGSEYVLVERRKPTYWASRSYRKRAIDLLGSAEFKKFDQNEVNICEIAFGMVDKVIKGEEMEKEKEYLRSIANNKVALMQHRINKVFKGNRRRKNPHRQYVANVDESSGHVEYTLQVDDYFDWEDAYEDNSDDEFSEKDEQAVLMHQEGFDQPPCMRVMDALRRLHIITISGGYLGSDRDCEIVVSNQLLPERCAEIVYSEEAQCYSIEKLEDACILQVNGNNVKTSSPVDLCQGDSILLSGERFDVHVHNGSNTCPGCEPGLQQGDDDIAPVTTVPAKNIRGEVARRKNLKQMMKSYGIRPDDVLSEPIRKRPATGPSEMNIHRSEAPGSSSDMYGSCAAKPMPEGQRKFDLPSTSAAVAAAAAPKPLDSGNVGFKLLKSMGWSEGQGLGKEKQGHVEPVATEVKNNRKGLGANEKEPPTKSYKDQVLEKTKQRFNEKR | not soluble |
| AHHHHHHGSEKQGEKMKRLGKVLHYAKQGFLIVRTNWVPSLNDRVVDKRLQFVGIVKDVFGPVKMPYVAIKPKVSNPEIYVGEVLYVDERKRKESPKKNKEKRMKKKKRLNR | not soluble |
| MQPLKRIRHPSGSEILFDAKWHQYKLGGTALRSVSKLLDRFFPFDEKRVLELVSKKTGQPVDKIKQGWSRQALLGKNVHEFIECKLLKKPPPTFTLLMKRKQAREAARPADATGPAAITTTPLEDEVLHGEEALYLPVAEMAVEKVLSTYDVLGAEQVIAAPGWGIAGTIDFMGRNRRTNRVLIGDWKTTGSVTSNFRFGSFETACPGALRHLPNSKMYRYAMQVTIYGEILAREQYFEKQFFDAQLRASLTASLAVPSTDVTPPAPPAKTRGRPSSRAAAPAKSDIGSDVESLLKTFYRNNTEQRFEYGIVQLAKGEDGGVVAEFKEVTPETVMPPDCPEMTFDSLLQRVMEGVGV | soluble |
| MADDFKTAQMNNPHLRNYVEKFKKTYMKVPEFVPSLSRDFKEIKYPNIIYPIGDPIFIHLYGTPNLKTRYIAIEPKLNGSEERKKYFDILDKILEYAPYSDIPENDEEFGKVVTKLFDMVAK | not soluble |
| MGSDKIHHHHHHMKKAIVLCAGKGTRLRPLTFTTAKHLIPIANKPILFYSLENIARAGIEEVGIVVSPHNAEEFKSIVGTGENFGLRISYIIQEEPKGLAHAVWVSREFLGDEDFMMYLGDNLILEDLGKFVKDFENSDYAASILLSPVKDPTRFGVAVMEGDRVIKVVEKPKTPPSNLAIVGLYLFRNKIFEGIKNIKPSWRGELEITDAIEYLIEKGEKVRGYIVYGWWKDTGKPEDLLEANRKILMETTEELLGEMDDKSSIQGPVRIGKASKIVNSVIRGPAVIGENCFIKNSYVGPYSSIGNRVILEDCEVENSIVMDECSITGVEKRIDSSILGKGVSVKGSQKRPASLNLILGNMSRVEL | not soluble |
| MSLSRSLDSARSFLERLEARGGREGAVLAGEFSDIQACSAAWKADGVCSTVAGSRPENVRKNRYKDVLPYDQTRVILSLLQEEGHSDYINGNFIRGVDGSLAYIATQGPLPHTLLDFWRLVWEFGVKVILMACREIENGRKRCERYWAQEQEPLQTGLFCITLIKEKWLNEDIMLRTLKVTFQKESRSVYQLQYMSWPDRGVPSSPDHMLAMVEEARRLQGSGPEPLCVHCSAGCGRTGVLCTVDYVRQLLLTQMIPPDFSLFDVVLKMRKQRPAAVQTEEQYRFLYHTVAQMFCSTLQNASEGHHHHHH | soluble |
| MSLCLPTIRKIAIIGAGPSGLVTAKALLAEKAFDQVTLFERRGSPGGVWNYTSTLSNKLPVPSTNPILTTEPIVGPAALPVYPSPLYRDLQTNTPIELMGYCDQSFKPQTLQFPHRHTIQEYQRIYAQPLLPFIKLATDVLDIEKKDGSWVVTYKGTKAGSPISKDIFDAVSICNGHYEVPYIPNIKGLDEYAKAVPGSVLHSSLFREPELFVGESVLVVGGASSANDLVRHLTPVAKHPIYQSLLGGGDIQNESLQQVPEITKFDPTTREIYLKGGKVLSNIDRVIYCTGYLYSVPFPSLAKLKSPETKLIDDGSHVHNVYQHIFYIPDPTLAFVGLALHVVPFPTSQAQAAFLARVWSGRLKLPSKEEQLKWQDELMFSLSGANNMYHSLDYPKDATYINKLHDWCKQATPVLEEEFPSPYWGEKERSIRENMWSIRAKFFGIEPPKEGHHHHHH | soluble |
| MNYAIQSETRHYPYLEVSARKRALKHSLIRVEQGLLLFRLGKHEYAVEKGQTLWIPFDCLCGLTFFPDTHITRVDFSLRLNVRLPHNAGFIKSSELALAVLHRLQNCERHHPTFTHLTQLLMLELTTCDPKLKMSPLTQAITEWQPQAHASVSKEQHVVLLVREALKRSQSGAQTHSIIEELFSGNAEHYHQLCTLVLGRTL | not soluble |
| MGSDKIHHHHHHMRGEQSPNGLHYAREHLSCKNYMTDIDTGFKYIKFDTEKCIEEEYTHKNYLLFFLEGDFSVYCNQFCNRTFHSNEMVVLPKSSMIKISATDKSQMLAMAFDIPQSNCDKLLFQGLSSICENIDYDFSPIPMRYPLMPFLETVVHCLRNEMNCTYLHNVIEREFFFLLRGFYNKKEIATLFHPIIGRQLEFRDFVMQNYSKVNNLDELITLSNIGRTSFFIKFKEEFGITAKQWMMKQLKKRILGKVIEPGICVKQLMEVCNFESQAQLYRYFKQHFRCTPKQLIDRYQAKTDNL | not soluble |
| MPVVKSIYSSLKSFADYFSPSAKTSSQQVVILRMPGNPLELVGLVTRRTLEGLPDGFTQGDRVAVYLPMGYMIGGYTVFVPTEWVHPIQMSVEEAMRSSLIAWMARLEHHHHHH | not soluble |
| MMTKYGVVGTGYFGAELARFMSKVEGAKITAIYDPVNAAPIAKELNCVATATMEALCSHPDVDCVIIASPNYLHKAPVIAAAKAGKHVFCEKPIALNYQDCKDMVDACKEAGVTFMAGHVMNFFHGVRHAKALIKAGEIGEVTQVHTKRNGFEDVQDEISWKKIRAKSGGHLYHHIHELDCTLFIMDETPSLVSMAAGNVAHKGEKFGDEDDVVLITLEFESGRFATLQWGSSFHYPEHYVLIEGTTGAILIDMQNTAGYLIKAGKKTHFLVHESQAEDDDRRNGNISSEMDGAIAYGKPGKRTPMWLSSIMKLEMQYLHDVINGLEPGEEFAKLLTGEAATNAIATADAATLSSNEGRKVKLTEILG | not soluble |
| MSLKTFIKIILLYLMPILAFATELRPGDRLQIKFPGESAFEKSFQLDHDGKISLPEIGTVKLQGMSLLQARTVLTGKLSNAYKDLSKFDLFLKERRLTVTVLGYVKEPGPVDMPIRANVQMAINSAGGLAQGAQLDKLQIRRSSGIIEFDYKHYLDSGDPSSLPKLEPMDVIFIPASPLIGNVQVEFDARTLTASGDAGEDGEAIKVFGEVHRPGTFAFKEDASVMDMIMRAGGVTRYAGIEQIRVIHQGQPYPFDMREYLDTGNPDLMPKIHQGDVIFIPQATEQVKSGSRTVYVMGEVFKPGAMEMGEGSGFYDLLATAGGPTRFAETRQIRIIRADGKVQPFDLQGYVDSQGRTKLPSIQPGDAILVPEKTDMNEKSWLKVHPNRAVRIIGAVNRPGRYEWASEMTLMDLIAHAGGPIASADTAHLQILQQRKNGNTESVSFDLKSFLDEGHHHHHH | not soluble |
| MAVRIRLAKFGRKHHPIYRIVVMDAKSPREGKYIDILGTYDPKRKVLINVYPEKVKEWVLKGVELSHRAKAILWNHGILKEVVPEGYEMKRVGDYYVFEKRESKKSKGGEAA | soluble |
| SLTQKEQEEKLYMMLPVFNRVFGNAPPNTMTEKFSDLLQFTTQVSRLMVTEIRRRASNKSTEAASRAIVQFLEINQSEEASRGWMLLTTINLLASSGQKTVDCMTTMSVPSTLVKCLYLFFDLPHVPEAGGGAQNELPLAERRGLLQKAFVQILVKLCSFVSPAEELAQKDDLQLLFSAITSWCPPYNLPWRKSAGEVLMTISRHGLSVNVVKYIHEKECLSTCVQNMQQSDDLSPLEIVEMFAGLSCFLKDSSDVSQTLLDDFRIWQGYNFLCDLLLRLEQGKEAECRDALKDLVSLVTSLTTYGVSELKPAGVTTGAPFLLPGFAVPQPAGKGHSVRNIQAFAVLQNAFLKAKTNFLAQIILDAITNIYMADNANYFILESQHTLSQFAEKISKLPEVQNKYFEMLEFVVFSLNYIPCKELISVSILLKSSSSYHCSIIAMKTLLKFTRHDYIFKDVFREVGLLEVMVNLLHKYAALLKDPAQALN | soluble |
| MGSDKIHHHHHHMQTAARRSFDYDMPLIQTPTSACQIRQAWAKVADTPDRETADRLKDEIKALLKETNAVLVAHYYVDPLIQDLALETGGCVGDSLEMARFGAEHEAGTLVVAGVRFMGESAKILCPEKTVLMPDLEAECSLDLGCPEEAFSAFCDQHPDRTVVVYANTSAAVKARADWVVTSSVALEIVSYLKSRGEKLIWGPDRHLGDYICRETGADMLLWQGSCIVHNEFKGQELAALKAEHPDAVVLVHPESPQSVIELSDVVGSTSKLLKAAVSRPEKKFIVATDLGILHEMQKQAPDKQFIAAPTAGNGGSCKSCAFCPWMAMNSLGGIKYALTSGRNEILLDRKLGEAAKLPLQRMLDFAAGLKRGDVFNGMGPA | not soluble |
| MKRVVVTGIGMINALGLDKESSFKAICNGESGVNKITLFDATDFPVQIAAEVKNFDPLEVVDGKEVKKIDRFIQLGIKAAREAMQDAGFSEELDKEEFGIVSASGIGGLPNIEKNSIICSERGPRKISPFFIPSALVNMLGGLISIEHGLKGPNISCVTACAAGTHAIGEAYKSIALGNAKKMLVIGAEAAICPVGIGGFASMKALSTRNEDPQHASRPFDKERDGFVMGEGAGALVFEEYEEAKKRGATIYAELIGFGESADAHHITSPTLDGPLRAMKKALNMAGNPKVDYINAHGTSTPVNDKNETAAIKELFGNNIPLISSTKGQTGHCLGAAGAIEAVVSVMVLRDGVVPPTINQLVKDDECDLDYIPNISRKVDLKVVMSNSFGFGGTNGCVVFKKVD | soluble |
| MDTVNDSFSPGSSRPSPATLSREDCWSEEATFTLIQAWGNRYVDLSRGNLRQKHWQEVANAVNDRHYNTGRNVSAAKSQPYRTDVQCKNRIDTLKKKYKVEKARVSESNPGAYISPWPFFSALDDLLRESFPTSSNPDSTDNIPHQRLSLPMSINPVPVAPRSAIPRRPATSPAIIPHAGDDLLGFRGNLNAFAAAAAAAACPASEDDSEGSRSRSSGRSGSNKKRERKIEKKQGYKEVADAIERLGQIYERVEEKKRKEMVELEKQRMRFAKELECHRMQLFTEMQVRLHKLRRTSGSKGPTSSASAGET | soluble |
| MGSDKIHHHHHHMEKSKYKRDWSKYDENVITRYKLMFPFYVFEHWWDLLAEENRNARTKYKAPKEFNEFLAFLHIFLPYRAIEGVLRALEQLKIIPTSLDYSTIWERVRNMNITFPETSDELEVIADATGISTNTGGQYIVAKWGKTRDSKFLKIEIVMDNNEFNVINAEVTSNEVESAVKTVKDLQDKGKKVKKFYGDKAYDANEVYKTGVEVVVPPKKNASTKRHLARRKAVREFRKLGYDRWKEEKGYGVRWRVESLFSAVKRTFGESVRQVLLGK | not soluble |
| MGSDKIHHHHHHMQNVNSAFEYCDQLVKDFERVIEHPIVSKSSVYYTGIDLGTAYIVLAVLDENYQPVAGAYRFANVVKDGMVVDYIGAIRIVKELKQELEERLDTELVYAAAALPPGTMALDSGVIKHVVQGAGFEITNLLDEPTAANAVLKIKDGAIVDIGGGTTGITILKDGEVIYVADEPTGGTHFSLVIAGAYKMSFDEAENYKQNPKNHRELTPVVGPVVEKVSSILNRHLRDYQVETIYLVGGTCCLEGIETIIARQTGIPTYKPQNPMFVTPLGIALNCTQEIL | not soluble |
